Reference: paper PMC9938897, “CvkR is a MerR-type transcriptional repressor of class 2 type V-K CRISPR-associated transposase systems”
Positions count from the first letter of the chain named.

B1: Pwt (dsDNA)
DNA 1: TTGTATAACATTATGTGTTTTGTATGGTATTTT
DNA 2: AAAATACCATACAAAACACATAATGTTATACAA
B2: P43 (dsDNA)
DNA 1: TGCTTTGTATAACATTATGTGTTTTGTATGGTATTTTATTTTT
DNA 2: AAAAATAAAATACCATACAAAACACATAATGTTATACAAAGCA
B3: Pcas12k (dsDNA)
DNA 1: AAGAAACATCCTATAGAAGCATCTTCTAAAACACATTAGTGCTTTGTATAACATTATGTGTTTTGTATGGTATTTTATTTTTA
DNA 2: TAAAAATAAAATACCATACAAAACACATAATGTTATACAAAGCACTAATGTGTTTTAGAAGATGCTTCTATAGGATGTTTCTT
B4: P45 (dsDNA)
DNA 1: TAAGAAACATCCTATAGAAGCATCTTCTAAAACACATTAGTGCTTT
DNA 2: AAAGCACTAATGTGTTTTAGAAGATGCTTCTATAGGATGTTTCTTA
B5: Ptracr (dsDNA)
DNA 1: TTAGCCCTCTATGCTTATAGTCTCCGCCTAGCTAGGCGAAGTTGACAAACATCTGAACCTTGAAAATATAATATGTAATA
DNA 2: TATTACATATTATATTTTCAAGGTTCAGATGTTTGTCAACTTCGCCTAGCTAGGCGGAGACTATAAGCATAGAGGGCTAA
B6: PpsbAI (dsDNA)
DNA 1: GGAATAATTAACATTAAGAATTATTAATTCATGGGTTTTTAGTCTAGTAAATTTGCGTGAATTCATGTAAATTTTATGAG
DNA 2: CTCATAAAATTTACATGAATTCACGCAAATTTACTAGACTAAAAACCCATGAATTAATAATTCTTAATGTTAATTATTCC
B7: PtnsB (dsDNA)
DNA 1: AAAGGTTTTGTATATTTTCATAATGACAAATTGACTGTCGTTTTCTCCACGTTTAGAATAACATTATGTATTTATAAATT
DNA 2: AATTTATAAATACATAATGTTATTCTAAACGTGGAGAAAACGACAGTCAATTTGTCATTATGAAAATATACAAAACCTTT
B8: PtnsBcenter (dsDNA)
DNA 1: TTTAGAATAACATTATGTATTTATAAATTACCTTTGTTTCA
DNA 2: TGAAACAAAGGTAATTTATAAATACATAATGTTATTCTAAA
B9: Pcas12kcenter (dsDNA)
DNA 1: CTAAAACACATTAGTGCTTTGTATAACATTATGTGTTTTGTAT
DNA 2: ATACAAAACACATAATGTTATACAAAGCACTAATGTGTTTTAG
B10: P15-5 (dsDNA)
DNA 1: B1 DNA 1 with T12A
DNA 2: B1 DNA 2 with A22T

What follows are binders tested against CvkR R42E (Anabaena sp. PCC 7120, UniProt A0ACD6B984 19-168, R60E) (assay: EMSA; EMSA: 10 mM Tris-HCl pH 8.0, 25 mM MgCl2, 50 mM NaCl, 1 mM DTT, 1 mM EDTA, 50 ug/mL poly(dI-dC), 0.01% NP-40, 10% glycerol, 2 nM probe, 25 C 30 min; footprinting: 50 mM Tris-HCl pH 8.0, 100 mM KCl, 2.5 mM MgCl2, 0.2 mM DTT, 10% glycerol, 2 ug salmon sperm DNA, RT). Conditions: protein: recombinant; tags: 6xHis-SUMO removed by Ulp1; chain copies: 2; label: 5'-biotin; blunt.
Chain of CvkR R42E (A0ACD6B984 entry or part of it R60E | R42E R42E): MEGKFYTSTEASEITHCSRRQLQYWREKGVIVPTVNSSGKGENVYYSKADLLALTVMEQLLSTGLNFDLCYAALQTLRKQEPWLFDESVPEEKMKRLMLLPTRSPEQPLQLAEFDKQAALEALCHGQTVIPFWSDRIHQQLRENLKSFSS

**Q.** Does B1 bind?
**A.** no binding

Each binder was assayed against T1, CvkR (Alr3614) (Anabaena sp. PCC 7120, UniProt A0ACD6B984 19-168) in the same assay as above. Conditions: protein: recombinant; tags: 6xHis-SUMO removed by Ulp1 (BamHI site; possible vector residues at N-term); chain copies: 2; label: 5'-biotin; blunt.
T1 sequence (A0ACD6B984 entry or part of it): as the sequence (A0ACD6B984 entry or part of it R60E | R42E R42E) above, with E42R counted along it

**Q.** Does B2 bind?
**A.** binds

**Q.** Does B3 bind?
**A.** binds

**Q.** Does B4 bind?
**A.** no binding

**Q.** Does B5 bind?
**A.** no binding

**Q.** Does B1 bind?
**A.** binds

**Q.** Does B6 bind?
**A.** no binding

**Q.** Does B7 bind?
**A.** binds

**Q.** Does B8 bind?
**A.** binds

**Q.** Does B9 bind?
**A.** binds

Each binder was assayed against CvkRmut (Anabaena sp. PCC 7120, UniProt A0ACD6B984 19-168, R37A;R38A;Q41A;K58A;R60A;N84A) in the same assay as above. Conditions: protein: recombinant; tags: 6xHis-SUMO removed by Ulp1; chain copies: 2; label: 5'-biotin; blunt.
Chain of CvkRmut (A0ACD6B984 entry or part of it R37A;R38A;Q41A;K58A;R60A;N84A): as the sequence (A0ACD6B984 entry or part of it R60E | R42E R42E) above, with R19A, R20A, Q23A, K40A, E42A, N66A counted along it

**Q.** Does B1 bind?
**A.** no binding

These binders were tested against T1, CvkR (Alr3614) (assay: EMSA; no effect of mutation; EMSA: 10 mM Tris-HCl pH 8.0, 25 mM MgCl2, 50 mM NaCl, 1 mM DTT, 1 mM EDTA, 50 ug/mL poly(dI-dC), 0.01% NP-40, 10% glycerol, 2 nM probe, 25 C 30 min; footprinting: 50 mM Tris-HCl pH 8.0, 100 mM KCl, 2.5 mM MgCl2, 0.2 mM DTT, 10% glycerol, 2 ug salmon sperm DNA, RT). Conditions: protein: recombinant; tags: 6xHis-SUMO removed by Ulp1 (BamHI site; possible vector residues at N-term); chain copies: 2; label: 5'-biotin; blunt.

**Q.** Does B10 bind?
**A.** binds
